Measured values from IntAct's records for PubMed 18494562.

B1: Raf homolog serine/threonine-protein kinase Raf (Drosophila melanogaster (Fruit fly)), P11346 (parent)
chain: MSSESSTEGDSDLYDPLAEELHNVQLVKHVTRENIDALNAKFANLQEPPAMYLIEYQELTSKLHELEAKEQELMERLNSQDQQEDSSLVERFKEQPHYQNQTQILQQQRQLARVHHGNDLTDSLGSQPGSQCGTLTRQPKILLRAHLPNQQRTSVEVISGVRLCDALMKALKLRQLTPDMCEVSTTHSGRHIIPWHTDIGTLHVEEIFVRLLDKFPIRTHIKHQIIRKTFFSLVFCEGCRRLLFTGFYCSQCNFRFHQRCANRVPMLCQPFPMDSYYQLLLAENPDNGVGFPGRGTAVRFNMSSRSRSRRCSSSGSSSSSKPPSSSSGNHRQGRPPRISQDDRSNSAPNVCINNIRSVTSEVQRSLIMQARPPLPHPCTDHSNSTQASPTSTLKHNRPRARSADESNKNLLLRDAKSSEENWNILAEEILIGPRIGSGSFGTVYRAHWHGPVAVKTLNVKTPSPAQLQAFKNEVAMLKKTRHCNILLFMGCVSKPSLAIVTQWCEGSSLYKHVHVSETKFKLNTLIDIGRQVAQGMDYLHAKNIIHRDLKSNNIFLHEDLSVKIGDFGLATAKTRWSGEKQANQPTGSILWMAPEVIRMQELNPYSFQSDVYAFGIVMYELLAECLPYGHISNKDQILFMVGRGLLRPDMSQVRSDAPQALKRLAEDCIKYTPKDRPLFRPLLNMLENMLRTLPKIHRSASEPNLTQSQLQNDEFLYLPSPKTPVNFNNFQFFGSAGNI
B2: Raf homolog serine/threonine-protein kinase Raf (Drosophila melanogaster (Fruit fly)), P11346 (parent)
chain: B1 chain
partner: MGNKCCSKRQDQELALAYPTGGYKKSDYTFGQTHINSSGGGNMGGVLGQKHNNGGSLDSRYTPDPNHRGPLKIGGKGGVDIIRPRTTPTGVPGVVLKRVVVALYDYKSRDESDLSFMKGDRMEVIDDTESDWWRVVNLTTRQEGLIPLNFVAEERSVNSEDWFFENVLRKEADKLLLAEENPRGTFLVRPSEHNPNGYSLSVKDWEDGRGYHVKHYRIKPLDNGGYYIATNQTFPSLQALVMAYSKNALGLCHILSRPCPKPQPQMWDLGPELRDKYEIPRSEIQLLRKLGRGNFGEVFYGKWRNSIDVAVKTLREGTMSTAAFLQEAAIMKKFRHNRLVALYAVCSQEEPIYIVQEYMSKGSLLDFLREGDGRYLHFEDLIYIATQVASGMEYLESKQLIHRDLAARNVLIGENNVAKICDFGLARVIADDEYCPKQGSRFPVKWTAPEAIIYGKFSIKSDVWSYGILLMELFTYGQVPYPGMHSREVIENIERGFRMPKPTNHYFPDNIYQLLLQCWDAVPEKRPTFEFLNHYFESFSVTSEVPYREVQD

Variants of: B1
Settings: with dsor1_drome Dsor1, Q24324
dsor1_drome Dsor1, Q24324, sequence (Q24324 whole entry): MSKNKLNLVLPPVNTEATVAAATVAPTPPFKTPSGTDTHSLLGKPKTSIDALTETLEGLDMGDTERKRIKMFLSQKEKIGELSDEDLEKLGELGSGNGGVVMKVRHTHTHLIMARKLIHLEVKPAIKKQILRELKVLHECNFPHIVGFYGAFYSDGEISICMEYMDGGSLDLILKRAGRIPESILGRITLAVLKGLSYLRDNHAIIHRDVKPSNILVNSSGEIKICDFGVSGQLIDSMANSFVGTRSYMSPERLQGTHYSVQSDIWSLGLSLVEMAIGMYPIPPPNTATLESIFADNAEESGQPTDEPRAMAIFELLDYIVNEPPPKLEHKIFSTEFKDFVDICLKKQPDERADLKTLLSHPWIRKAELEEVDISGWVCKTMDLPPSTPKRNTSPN

Row | effect of a mutation on the interaction | Variant
1 | increasing interaction | Y510E

Variants of: B2
Settings: with src64_drome Src64B

Row | effect of a mutation on the interaction | Variant
2 | disrupting interaction | Y510F
